From US11965039B2, “Compstatin analogues and their medical uses” (priority 2018, dated 2024)
Starred links: 1 amine or outer side, 2 acyl side, 3 side chain; linkers in the order of their positions; H or OH if unused. Positions of bridges follow the written chain, without caps; N, C: chain ends. Non-standard residues stand in square brackets, D forms with d. Groups on a side chain read outwards from the residue. *: point of attachment. Trp(1-Me) = Cn1cc(C[C@H](N)C(=O)O)c2ccccc21; C18 diacid = O=C(O)CCCCCCCCCCCCCCCCC(=O)*; C16 diacid = O=C(O)CCCCCCCCCCCCCCC(=O)*; γGlu = O=C(O)[C@H](CCC(=O)[*:2])N[*:1]; Sar = CNCC(=O)O

B1: Compound 129 (peptide)
peptide: Ac-SEFCI[Trp(1-Me)]QDWGEHRC[Sar]EGEGGGK([γGlu-Gly-γGlu-C18 diacid])-NH2
modifications: disulfide 4-14
SMILES: CC[C@H](C)[C@@H]1NC(=O)[C@@H](NC(=O)[C@H](Cc2ccccc2)NC(=O)[C@H](CCC(=O)O)NC(=O)[C@H](CO)NC(C)=O)CSSC[C@@H](C(=O)N(C)CC(=O)N[C@@H](CCC(=O)O)C(=O)NCC(=O)N[C@@H](CCC(=O)O)C(=O)NCC(=O)NCC(=O)NCC(=O)N[C@@H](CCCCNC(=O)CC[C@H](NC(=O)CNC(=O)CC[C@H](NC(=O)CCCCCCCCCCCCCCCCC(=O)O)C(=O)O)C(=O)O)C(N)=O)NC(=O)[C@H](CCCNC(=N)N)NC(=O)[C@H](Cc2c[nH]cn2)NC(=O)[C@H](CCC(=O)O)NC(=O)CNC(=O)[C@H](Cc2c[nH]c3ccccc23)NC(=O)[C@H](CC(=O)O)NC(=O)[C@H](CCC(N)=O)NC(=O)[C@H](Cc2cn(C)c3ccccc23)NC1=O
B2: Compound 7 (peptide)
peptide: Ac-ICIWQKWGEHRCT-NH2
modifications: disulfide 2-12
SMILES: CC[C@H](C)[C@H](NC(C)=O)C(=O)N[C@H]1CSSC[C@@H](C(=O)N[C@H](C(N)=O)[C@@H](C)O)NC(=O)[C@H](CCCNC(=N)N)NC(=O)[C@H](Cc2c[nH]cn2)NC(=O)[C@H](CCC(=O)O)NC(=O)CNC(=O)[C@H](Cc2c[nH]c3ccccc23)NC(=O)[C@H](CCCCN)NC(=O)[C@H](CCC(N)=O)NC(=O)[C@H](Cc2c[nH]c3ccccc23)NC(=O)[C@H]([C@@H](C)CC)NC1=O
B3: Compound 131 (peptide)
peptide: Ac-SEFCI[Trp(1-Me)]QDWGEHRCTEGEGGGK([γGlu-Gly-γGlu-C16 diacid])-NH2
modifications: disulfide 4-14
SMILES: CC[C@H](C)[C@@H]1NC(=O)[C@@H](NC(=O)[C@H](Cc2ccccc2)NC(=O)[C@H](CCC(=O)O)NC(=O)[C@H](CO)NC(C)=O)CSSC[C@@H](C(=O)N[C@H](C(=O)N[C@@H](CCC(=O)O)C(=O)NCC(=O)N[C@@H](CCC(=O)O)C(=O)NCC(=O)NCC(=O)NCC(=O)N[C@@H](CCCCNC(=O)CC[C@H](NC(=O)CNC(=O)CC[C@H](NC(=O)CCCCCCCCCCCCCCC(=O)O)C(=O)O)C(=O)O)C(N)=O)[C@@H](C)O)NC(=O)[C@H](CCCNC(=N)N)NC(=O)[C@H](Cc2c[nH]cn2)NC(=O)[C@H](CCC(=O)O)NC(=O)CNC(=O)[C@H](Cc2c[nH]c3ccccc23)NC(=O)[C@H](CC(=O)O)NC(=O)[C@H](CCC(N)=O)NC(=O)[C@H](Cc2cn(C)c3ccccc23)NC1=O
B4: Compound 112 (peptide)
peptide: Ac-SEYCI[Trp(1-Me)]QDWGEHRC[Sar]EGAK([γGlu-Gly-γGlu-C18 diacid])-NH2
modifications: disulfide 4-14
SMILES: CC[C@H](C)[C@@H]1NC(=O)[C@@H](NC(=O)[C@H](Cc2ccc(O)cc2)NC(=O)[C@H](CCC(=O)O)NC(=O)[C@H](CO)NC(C)=O)CSSC[C@@H](C(=O)N(C)CC(=O)N[C@@H](CCC(=O)O)C(=O)NCC(=O)N[C@@H](C)C(=O)N[C@@H](CCCCNC(=O)CC[C@H](NC(=O)CNC(=O)CC[C@H](NC(=O)CCCCCCCCCCCCCCCCC(=O)O)C(=O)O)C(=O)O)C(N)=O)NC(=O)[C@H](CCCNC(=N)N)NC(=O)[C@H](Cc2c[nH]cn2)NC(=O)[C@H](CCC(=O)O)NC(=O)CNC(=O)[C@H](Cc2c[nH]c3ccccc23)NC(=O)[C@H](CC(=O)O)NC(=O)[C@H](CCC(N)=O)NC(=O)[C@H](Cc2cn(C)c3ccccc23)NC1=O
B5: Compound 113 (peptide)
peptide: Ac-ASGEYCI[Trp(1-Me)]QDWGEHRC[Sar]EGEK([γGlu-Gly-γGlu-C18 diacid])-NH2
modifications: disulfide 6-16
SMILES: CC[C@H](C)[C@@H]1NC(=O)[C@@H](NC(=O)[C@H](Cc2ccc(O)cc2)NC(=O)[C@H](CCC(=O)O)NC(=O)CNC(=O)[C@H](CO)NC(=O)[C@H](C)NC(C)=O)CSSC[C@@H](C(=O)N(C)CC(=O)N[C@@H](CCC(=O)O)C(=O)NCC(=O)N[C@@H](CCC(=O)O)C(=O)N[C@@H](CCCCNC(=O)CC[C@H](NC(=O)CNC(=O)CC[C@H](NC(=O)CCCCCCCCCCCCCCCCC(=O)O)C(=O)O)C(=O)O)C(N)=O)NC(=O)[C@H](CCCNC(=N)N)NC(=O)[C@H](Cc2c[nH]cn2)NC(=O)[C@H](CCC(=O)O)NC(=O)CNC(=O)[C@H](Cc2c[nH]c3ccccc23)NC(=O)[C@H](CC(=O)O)NC(=O)[C@H](CCC(N)=O)NC(=O)[C@H](Cc2cn(C)c3ccccc23)NC1=O
B6: Compound 115 (peptide)
peptide: Ac-SEYCI[Trp(1-Me)]QDWGEHRC[Sar]EGKK([γGlu-Gly-γGlu-C18 diacid])-NH2
modifications: disulfide 4-14
SMILES: CC[C@H](C)[C@@H]1NC(=O)[C@@H](NC(=O)[C@H](Cc2ccc(O)cc2)NC(=O)[C@H](CCC(=O)O)NC(=O)[C@H](CO)NC(C)=O)CSSC[C@@H](C(=O)N(C)CC(=O)N[C@@H](CCC(=O)O)C(=O)NCC(=O)N[C@@H](CCCCN)C(=O)N[C@@H](CCCCNC(=O)CC[C@H](NC(=O)CNC(=O)CC[C@H](NC(=O)CCCCCCCCCCCCCCCCC(=O)O)C(=O)O)C(=O)O)C(N)=O)NC(=O)[C@H](CCCNC(=N)N)NC(=O)[C@H](Cc2c[nH]cn2)NC(=O)[C@H](CCC(=O)O)NC(=O)CNC(=O)[C@H](Cc2c[nH]c3ccccc23)NC(=O)[C@H](CC(=O)O)NC(=O)[C@H](CCC(N)=O)NC(=O)[C@H](Cc2cn(C)c3ccccc23)NC1=O
B7: Compound 114 (peptide)
peptide: Ac-SEYCI[Trp(1-Me)]QDWGEHRC[Sar]EGEK([γGlu-Gly-γGlu-C18 diacid])-NH2
modifications: disulfide 4-14
SMILES: CC[C@H](C)[C@@H]1NC(=O)[C@@H](NC(=O)[C@H](Cc2ccc(O)cc2)NC(=O)[C@H](CCC(=O)O)NC(=O)[C@H](CO)NC(C)=O)CSSC[C@@H](C(=O)N(C)CC(=O)N[C@@H](CCC(=O)O)C(=O)NCC(=O)N[C@@H](CCC(=O)O)C(=O)N[C@@H](CCCCNC(=O)CC[C@H](NC(=O)CNC(=O)CC[C@H](NC(=O)CCCCCCCCCCCCCCCCC(=O)O)C(=O)O)C(=O)O)C(N)=O)NC(=O)[C@H](CCCNC(=N)N)NC(=O)[C@H](Cc2c[nH]cn2)NC(=O)[C@H](CCC(=O)O)NC(=O)CNC(=O)[C@H](Cc2c[nH]c3ccccc23)NC(=O)[C@H](CC(=O)O)NC(=O)[C@H](CCC(N)=O)NC(=O)[C@H](Cc2cn(C)c3ccccc23)NC1=O

The binders below were run against Human C3 (Complement tech cat #A113c) (human, UniProt P01024 23-1663) (assay: cell-based or functional assay).
Sequence of Human C3 (Complement tech cat #A113c) (P01024 23-1663 limits assumed): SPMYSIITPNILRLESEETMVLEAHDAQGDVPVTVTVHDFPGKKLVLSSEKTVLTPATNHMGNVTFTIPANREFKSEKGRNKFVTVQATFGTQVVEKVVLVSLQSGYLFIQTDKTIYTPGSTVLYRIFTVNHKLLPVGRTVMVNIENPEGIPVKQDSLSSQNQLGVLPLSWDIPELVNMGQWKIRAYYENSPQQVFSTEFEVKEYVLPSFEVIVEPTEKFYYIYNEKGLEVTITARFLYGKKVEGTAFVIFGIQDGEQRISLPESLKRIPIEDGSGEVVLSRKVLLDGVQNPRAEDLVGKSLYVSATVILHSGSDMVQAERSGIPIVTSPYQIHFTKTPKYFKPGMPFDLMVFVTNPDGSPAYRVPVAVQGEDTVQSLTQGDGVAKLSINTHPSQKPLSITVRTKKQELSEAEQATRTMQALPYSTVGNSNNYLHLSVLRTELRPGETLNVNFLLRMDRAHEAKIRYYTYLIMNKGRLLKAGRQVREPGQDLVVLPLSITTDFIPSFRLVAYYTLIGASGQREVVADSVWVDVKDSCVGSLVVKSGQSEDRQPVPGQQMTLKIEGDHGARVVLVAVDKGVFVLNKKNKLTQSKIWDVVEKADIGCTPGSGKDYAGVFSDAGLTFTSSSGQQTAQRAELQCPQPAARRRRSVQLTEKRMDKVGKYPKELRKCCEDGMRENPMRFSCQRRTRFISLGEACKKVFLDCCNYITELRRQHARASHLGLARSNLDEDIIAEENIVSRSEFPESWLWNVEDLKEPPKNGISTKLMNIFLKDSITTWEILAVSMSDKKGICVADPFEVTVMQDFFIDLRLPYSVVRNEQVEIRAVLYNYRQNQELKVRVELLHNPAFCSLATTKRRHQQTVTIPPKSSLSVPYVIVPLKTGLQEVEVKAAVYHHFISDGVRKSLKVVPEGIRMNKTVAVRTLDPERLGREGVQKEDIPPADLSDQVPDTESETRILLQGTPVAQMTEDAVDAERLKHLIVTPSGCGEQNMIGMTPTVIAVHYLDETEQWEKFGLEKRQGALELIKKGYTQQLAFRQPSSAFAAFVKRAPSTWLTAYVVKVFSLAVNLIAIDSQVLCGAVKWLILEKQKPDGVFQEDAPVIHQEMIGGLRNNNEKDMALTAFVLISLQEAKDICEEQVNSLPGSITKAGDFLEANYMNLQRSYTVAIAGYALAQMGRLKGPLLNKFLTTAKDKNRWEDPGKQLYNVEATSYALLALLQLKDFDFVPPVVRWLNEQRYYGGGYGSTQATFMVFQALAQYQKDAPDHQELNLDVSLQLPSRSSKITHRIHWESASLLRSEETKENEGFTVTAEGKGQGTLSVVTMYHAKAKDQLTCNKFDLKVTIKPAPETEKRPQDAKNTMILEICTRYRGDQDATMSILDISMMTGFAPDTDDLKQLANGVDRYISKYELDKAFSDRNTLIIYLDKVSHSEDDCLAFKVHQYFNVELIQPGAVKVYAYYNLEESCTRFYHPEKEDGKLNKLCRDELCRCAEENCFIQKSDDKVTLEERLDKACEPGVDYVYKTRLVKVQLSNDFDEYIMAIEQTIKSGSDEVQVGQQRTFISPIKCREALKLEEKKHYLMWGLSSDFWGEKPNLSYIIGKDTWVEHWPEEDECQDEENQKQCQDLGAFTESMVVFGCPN
B1 was tested, and the “inhibition of hemolysis IC50” value was under 100 nM. B2 was tested, and the “inhibition of hemolysis IC50” value was under 1000 nM. With B3 the “inhibition of hemolysis IC50” value was under 100 nM. B4 was tested, and the “inhibition of hemolysis IC50” value was under 500 nM. With Ac-SEYCI[Trp(1-Me)]QDWGEHRC[Sar]EGEK([γGlu-Lys-γGlu-C18 diacid])-NH2 (disulfide 4-14) [Compound 116] the “inhibition of hemolysis IC50” value was under 500 nM. With B5 the “inhibition of hemolysis IC50” value was under 500 nM. B6 was tested, and the “inhibition of hemolysis IC50” value was under 250 nM. B7 was tested, and the “inhibition of hemolysis IC50” value was under 500 nM.
